In paper PMC6053543 (Nature cell biology, 2016):

T1: recombinant FL-Kank2 (mouse, UniProt Q8BX02 1-843)
T1 sequence (looked up): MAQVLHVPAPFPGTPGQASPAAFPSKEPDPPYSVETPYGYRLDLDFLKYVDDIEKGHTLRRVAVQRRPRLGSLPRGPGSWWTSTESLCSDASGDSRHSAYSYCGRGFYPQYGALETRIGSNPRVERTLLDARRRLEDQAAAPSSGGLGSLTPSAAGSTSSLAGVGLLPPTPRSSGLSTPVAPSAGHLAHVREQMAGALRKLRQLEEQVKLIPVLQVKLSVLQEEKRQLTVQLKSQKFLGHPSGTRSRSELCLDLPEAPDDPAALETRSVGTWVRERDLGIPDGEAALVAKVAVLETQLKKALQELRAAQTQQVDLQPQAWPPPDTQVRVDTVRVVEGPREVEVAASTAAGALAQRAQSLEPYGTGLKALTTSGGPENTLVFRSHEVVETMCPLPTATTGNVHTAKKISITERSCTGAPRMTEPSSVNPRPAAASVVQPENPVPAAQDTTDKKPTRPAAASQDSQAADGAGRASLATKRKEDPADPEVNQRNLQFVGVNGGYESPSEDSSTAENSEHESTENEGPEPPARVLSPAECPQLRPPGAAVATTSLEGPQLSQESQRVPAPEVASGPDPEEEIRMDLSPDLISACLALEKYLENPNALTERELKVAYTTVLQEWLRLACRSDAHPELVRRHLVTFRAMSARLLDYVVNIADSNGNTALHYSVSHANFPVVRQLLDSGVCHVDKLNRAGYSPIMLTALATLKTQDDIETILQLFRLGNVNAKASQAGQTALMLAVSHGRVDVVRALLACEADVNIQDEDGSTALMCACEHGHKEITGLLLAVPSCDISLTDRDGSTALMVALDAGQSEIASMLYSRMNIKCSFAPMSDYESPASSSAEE

B1: Venus-His-Sumo-tagged talin R4–R8 domain (domain or fragment, mouse, UniProt P26039 913-1655, looked up)
chain: LVQRLEHAAKQAAASATQTIAAAQHAASAPKASAGPQPLLVQSCKAVAEQIPLLVQGVRGSQAQPDSPSAQLALIAASQSFLQPGGKMVAAAKASVPTIQDQASAMQLSQCAKNLGTALAELRTAAQKAQEACGPLEMDSALSVVQNLEKDLQEIKAAARDGKLKPLPGETMEKCTQDLGNSTKAVSSAIAKLLGEIAQGNENYAGIAARDVAGGLRSLAQAARGVAALTSDPAVQAIVLDTASDVLDKASSLIEEAKKASGHPGDPESQQRLAQVAKAVTQALNRCVSCLPGQRDVDNALRAVGDASKRLLSDSLPPSTGTFQEAQSRLNEAAAGLNQAATELVQASRGTPQDLARASGRFGQDFSTFLEAGVEMAGQAPSQEDRAQVVSNLKGISMSSSKLLLAAKALSTDPASPNLKSQLAAAARAVTDSINQLITMCTQQAPGQKECDNALRQLETVRELLENPVQPINDMSYFGCLDSVMENSKVLGEAMTGISQNAKNGNLPEFGDAIATASKALCGFTEAAAQAAYLVGVSDPNSQAGQQGLVEPTQFARANQAIQMACQSLGEPGCTQAQVLSAATIVAKHTSALCNSCRLASARTANPTAKRQFVQSAKEVANSTANLVKTIKALDGDFTEENRAQCRAATAPLLEAVDNLSAFASNPEFSSVPAQISPEGRAAMEPIVISAKTMLESAGGLIQTARALAVNPRDPPRWSVLAGHSRTVSDSIKKLITSMRDKA

What was measured:
recombinant FL-Kank2 = target: T1, recombinant FL-Kank2; assay: pull-down
[1] = target: B1; assay: pull-down

binding result (recombinant FL-Kank2) | binding result [1] | Binder
binds | – | B1
– | binds | DPPYSVETPYGYRLDLDFLKYVDDIEKGHTLRRVAVQRRPRLGS (domain or fragment, mouse, UniProt Q8BX02 29-72, looked up) [GST-tagged Kank2-KN (amino acids 29–72)]
